Measured values: the supplement of paper PMC5998384

Experiments:
HeLa Kyoto [1] = assay: solubility in G1/S (NP-40 vs SDS abundance) (log2 ratio); higher = more soluble; conditions: cell cycle stage: G1/S
HeLa Kyoto [2] = assay: solubility change mitosis vs G1/S (difference of NP-40 vs SDS log2 ratios) (log2 ratio difference); higher = more soluble in mitosis
HeLa Kyoto [3] = assay: thermal stability score vs G1/S (z-score of summed log2 fold changes over temperatures); higher = more thermally stable than in G1/S
[4] = cell cycle stage: early G1 (4.5 h after nocodazole release)
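Wherever solubility change mitosis vs G1/S (difference of NP-40 vs SDS log2 ratios) is given: synchronized HeLa Kyoto cells (double thymidine block for G1/S, nocodazole release for mitosis), protein amounts in NP-40 versus SDS lysates quantified by mass spectrometry, three biological replicates.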
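Wherever solubility in G1/S (NP-40 vs SDS abundance) is given: HeLa Kyoto cells arrested at G1/S by double thymidine block, proteins quantified by TMT10plex mass spectrometry in mild NP-40 versus SDS extracts, three biological replicates.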
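Wherever thermal stability score vs G1/S (z-score of summed log2 fold changes over temperatures) is given: synchronized HeLa Kyoto cells, proteins quantified by TMT10plex mass spectrometry, three biological replicates, mitosis taken 0.5 h after nocodazole release, G1/S directly after double thymidine block.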

Substance | solubility in G1/S (log2) (HeLa Kyoto [1]) | solubility change mitosis (log2) (HeLa Kyoto [2]) | thermal stability score (HeLa Kyoto [3]; [4]) | thermal stability score (HeLa Kyoto [3]; cell cycle stage: mitosis)
MESSSSDYYNKDNEEESLLANVASLRHELKITEWSLQSLGEELSSVSPSENSDYAPNPSRSEKLILDVQPSHPGLLNYSPYENVCKISGSSTDFQKKPRDKMFSSSAPVDQEIKSLREKLNKLRQQNACLVTQNHSLMTKFESIHFELTQSRAKVSMLESAQQQAASVPILEEQIINLEAEVSAQDKVLREAENKLEQSQKMVIEKEQSLQESKEECIKLKVDLLEQTKQGKRAERQRNEALYNAEELSKAFQQYKKKVAEKLEKVQAEEEILERNLTNCEKENKRLQERCGLYKSELEILKEKLRQLKEENNNGKEKLRIMAVKNSEVMAQLTESRQSILKLESELENKDEILRDKFSLMNENRELKVRVAAQNERLDLCQQEIESSRVELRSLEKIISQLPLKRELFGFKSYLSKYQMSSFSNKEDRCIGCCEANKLVISELRIKLAIKEAEIQKLHANLTANQLSQSLITCNDSQESSKLSSLETEPVKLGGHQVESVKDQNQHTMNKQYEKERQRLVTGIEELRTKLIQIEAENSDLKVNMAHRTSQFQLIQEELLEKASNSSKLESEMTKKCSQLLTLEKQLEEKIVAYSSIAAKNAELEQELMEKNEKIRSLETNINTEHEKICLAFEKAKKIHLEQHKEMEKQIERLEAQLEKKDQQFKEQEKTMSMLQQDIICKQHHLESLDRLLTESKGEMKKENMKKDEALKALQNQVSEETIKVRQLDSALEICKEELVLHLNQLEGNKEKFEKQLKKKSEEVYCLQKELKIKNHSLQETSEQNVILQHTLQQQQQMLQQETIRNGELEDTQTKLEKQVSKLEQELQKQRESSAEKLRKMEEKCESAAHEADLKRQKVIELTGTARQVKIEMDQYKEELSKMEKEIMHLKRDGENKAMHLSQLDMILDQTKTELEKKTNAVKELEKLQHSTETELTEALQKREVLETELQNAHGELKSTLRQLQELRDVLQKAQLSLEEKYTTIKDLTAELRECKMEIEDKKQELLEMDQALKERNWELKQRAAQVTHLDMTIREHRGEMEQKIIKLEGTLEKSELELKECNKQIESLNDKLQNAKEQLREKEFIMLQNEQEISQLKKEIERTQQRMKEMESVMKEQEQYIATQYKEAIDLGQELRLTREQVQNSHTELAEARHQQVQAQREIERLSSELEDMKQLSKEKDAHGNHLAEELGASKVREAHLEARMQAEIKKLSAEVESLKEAYHMEMISHQENHAKWKISADSQKSSVQQLNEQLEKAKLELEEAQDTVSNLHQQVQDRNEVIEAANEALLTKESELTRLQAKISGHEKAEDIKFLPAPFTSPTEIMPDVQDPKFAKCFHTSFSKCTKLRRSISASDLTFKIHGDEDLSEELLQDLKKMQLEQPSTLEESHKNLTYTQPDSFKPLTYNLEADSSENNDFNTLSGMLRYINKEVRLLKKSSMQTGAGLNQGENV [CCDC18] | 0.155 | 0.237 | -0.388 | -0.856
MDEETRHSLECIQANQIFPRKQLIREDENLQVPFLELHGESTEFVGRAEDAIIALSNYRLHIKFKESLVNVPLQLIESVECRDIFQLHLTCKDCKVIRCQFSTFEQCQEWLKRLNNAIRPPAKIEDLFSFAYHAWCMEVYASEKEQHGDLCRPGEHVTSRFKNEVERMGFDMNNAWRISNINEKYKLCGSYPQELIVPAWITDKELESVSSFRSWKRIPAVIYRHQSNGAVIARCGQPEVSWWGWRNADDEHLVQSVAKACASDSRSSGSKLSTRNTSRDFPNGGDLSDVEFDSSLSNASGAESLAIQPQKLLILDARSYAAAVANRAKGGGCECPEYYPNCEVVFMGMANIHSIRRSFQSLRLLCTQMPDPGNWLSALESTKWLHHLSVLLKSALLVVHAVDQDQRPVLVHCSDGWDRTPQIVALAKLLLDPYYRTIEGFQVLVEMEWLDFGHKFADRCGHGENSDDLNERCPVFLQWLDCVHQLQRQFPCSFEFNEAFLVKLVQHTYSCLFGTFLCNNAKERGEKHTQERTCSVWSLLRAGNKAFKNLLYSSQSEAVLYPVCHVRNLMLWSAVYLPCPSPTTPVDDSCAPYPAPGTSPDDPPLSRLPKTRSYDNLTTACDNTVPLASRRCSDPSLNEKWQEHRRSLELSSLAGPGEDPLSADSLGKPTRVPGGAELSVAAGVAEGQMENILQEATKEESGVEEPAHRAGIEIQEGKEDPLLEKESRRKTPEASAIGLHQDPELGDAALRSHLDMSWPLFSQGISEQQSGLSVLLSSLQVPPRGEDSLEVPVEQFRIEEIAEGREEAVLPIPVDAKVGYGTSQSCSLLPSQVPFETRGPNVDSSTDMLVEDKVKSVSGPQGHHRSCLVNSGKDRLPQTMEPSPSETSLVERPQVGSVVHRTSLGSTLSLTRSPCALPLAECKEGLVCNGAPETENRASEQPPGLSTLQMYPTPNGHCANGEAGRSKDSLSRQLSAMSCSSAHLHSRNLHHKWLHSHSGRPSATSSPDQPSRSHLDDDGMSVYTDTIQQRLRQIESGHQQEVETLKKQVQELKSRLESQYLTSSLHFNGDFGDEVTSIPDSESNLDQNCLSRCSTEIFSEASWEQVDKQDTEMTRWLPDHLAAHCYACDSAFWLASRKHHCRNCGNVFCSSCCNQKVPVPSQQLFEPSRVCKSCYSSLHPTSSSIDLELDKPIAATSN [MTMR3] | -0.000164 | -0.15 | -0.332 | -0.143
CEP170B | 0.0802 | 0.338 | -3.46e-17 | -1.29e-17
MEGQSSRGSRRPGTRAGLGSLPMPQGVAQTGAPSKVDSSFQLPAKKNAALGPSEPRLALAPVGPRAAMSASSEGPRLALASPRPILAPLCTPEGQKTATAHRSSSLAPTSVGQLVMSASAGPKPPPATTGSVLAPTSLGLVMPASAGPRSPPVTLGPNLAPTSRDQKQEPPASVGPKPTLAASGLSLALASEEQPPELPSTPSPVPSPVLSPTQEQALAPASTASGAASVGQTSARKRDAPAPRPLPASEGHLQPPAQTSGPTGSPPCIQTSPDPRLSPSFRARPEALHSSPEDPVLPRPPQTLPLDVGQGPSEPGTHSPGLLSPTFRPGAPSGQTVPPPLPKPPRSPSRSPSHSPNRSPCVPPAPDMALPRLGTQSTGPGRCLSPNLQAQEAPAPVTTSSSTSTLSSSPWSAQPTWKSDPGFRITVVTWNVGTAMPPDDVTSLLHLGGGDDSDGADMIAIGLQEVNSMLNKRLKDALFTDQWSELFMDALGPFNFVLVSSVRMQGVILLLFAKYYHLPFLRDVQTDCTRTGLGGYWGNKGGVSVRLAAFGHMLCFLNCHLPAHMDKAEQRKDNFQTILSLQQFQGPGAQGILDHDLVFWFGDLNFRIESYDLHFVKFAIDSDQLHQLWEKDQLNMAKNTWPILKGFQEGPLNFAPTFKFDVGTNKYDTSAKKRKPAWTDRILWKVKAPGGGPSPSGRKSHRLQVTQHSYRSHMEYTVSDHKPVAAQFLLQFAFRDDMPLVRLEVADEWVRPEQAVVRYRMETVFARSSWDWIGLYRVGFRHCKDYVAYVWAKHEDVDGNTYQVTFSEESLPKGHGDFILGYYSHNHSILIGITEPFQISLPSSELASSSTDSSGTSSEGEDDSTLELLAPKSRSPSPGKSKRHRSRSPGLARFPGLALRPSSRERRGASRSPSPQSRRLSRVAPDRSSNGSSRGSSEEGPSGLPGPWAFPPAVPRSLGLLPALRLETVDPGGGGSWGPDREALAPNSLSPSPQGHRGLEEGGLGP [INPP5J] | 0.0932 | -0.115 | 0.193 | 0.518
MSQYTEKEPAAMDQESGKAVWPKPAGGYQTITGRRYGRRHAYVSFKPCMTRHERSLGRAGDDYEVLELDDVPKENSSGSSPLDQVDSSLPSEPIFEKSETEIPTCGSALNQTTESSQSFVAVHHSEEGRDTLGSSTNLHNHSEGEYIPGACSASSVQNGIALVHTDSYDPDGKHGEDNDHLQLSAEVVEGSRYQESLGNTVFELENREAEAYTGLSPPVPSFNCEVRDEFEELDSVPLVKSSAGDTEFVHQNSQEIQRSSQDEMVSTKQQNNTSQERQTEHSPEDAACGPGHICSEQNTNDREKNHGSSPEQVVRPKVRKLISSSQVDQETGFNRHEAKQRSVQRWREALEVEESGSDDLLIKCEEYDGEHDCMFLDPPYSRVITQRETENNQMTSESGATAGRQEVDNTFWNGCGDYYQLYDKDEDSSECSDGEWSASLPHRFSGTEKDQSSSDESWETLPGKDENEPELQSDSSGPEEENQELSLQEGEQTSLEEGEIPWLQYNEVNESSSDEGNEPANEFAQPAFMLDGNNNLEDDSSVSEDLDVDWSLFDGFADGLGVAEAISYVDPQFLTYMALEERLAQAMETALAHLESLAVDVEVANPPASKESIDGLPETLVLEDHTAIGQEQCCPICCSEYIKDDIATELPCHHFFHKPCVSIWLQKSGTCPVCRRHFPPAVIEASAAPSSEPDPDAPPSNDSIAEAP [PJA2] | -0.111 | 0.121 | -3.9 | -1.5
